From PMC9829517 come the findings set out here.

Test [1] has as its target Ndd^JamL-LipPKS1* (Moorea producens | not stated).

Consider JamC(E32T)-Cdd^JamK, for which, in test [1], the combined titer of 7 and 8 in E. coli (maximum amount of product) stood at 16 mg/L; the combined titer of 7 and 8 in E. coli, against unmodified JamC/LipPKS1* was found to be 39 fold.

B1: JamC (E32T) (natural protein)
chain: MENLTVETQNLTSLDNGSIEEKNGPTVDEVQTWLISYLSQLLDLEIEEISTSTSFNRYGLDSSASISLTSDFGDWISKEIDPTILYSYPTIEAMAEHFGA
modifications: holo-ACP, acyl chain loaded by JamA; residue not stated
Regarding B1, in the test with LipPKS1*, the in vitro product formation assay: formation of 7 against wild-type JamC is 7 fold.

B2: JamC (E32H) (natural protein)
chain: MENLTVETQNLTSLDNGSIEEKNGPTVDEVQHWLISYLSQLLDLEIEEISTSTSFNRYGLDSSASISLTSDFGDWISKEIDPTILYSYPTIEAMAEHFGA
modifications: holo-ACP, acyl chain loaded by JamA; residue not stated
B2: the in vitro product formation assay: formation of 7 against wild-type JamC with DEBSM6* amounted to 2 fold.
